Results reported in patent publication US20230059341A1 (TESARO, published 2023).
Read-outs that look alike come from different tables or passages of the source. Each block holds one binder with its values, some of them ahead of it.

Legend:
[1] = molecular target: T1, Neonatal Fc Receptor (FcRn) (UniProt P55899 24-297; P61769 21-119, limits assumed); test: FcRn binding assay, BIACORE (SPR)
[2] = molecular target: T2, human PD-1 on PD-1 effector cells (Jurkat T cells, Promega #J1155) (human, UniProt Q15116 25-288); test: cell-based or functional assay
[3] = molecular target: T3, PD-1 protein constitutively expressed on engineered CHO K1 cells (UniProt Q15116 25-288, limits assumed); test: MSD potency assay: competitive binding on CHO K1 cells expressing PD-1, inhibition of PD-L1-mFc binding, ECL; percent of reference material
T3 construct: whole, on cells; also called programmed cell death protein 1
Method: (§1) The Meso Scale Discovery (MSD) potency assay employs engineered CHO K1 cells constitutively expressing the PD-1 protein. […] The readout is measured using a specific detection antibody mixture that releases an electrochemiluminescence (ECL) signal that can be quantified.

[4] = molecular target: T3, PD-1 protein constitutively expressed …; test: as above; remark: listed apart in the source
Method: as §1

[5] = molecular target: T2, human PD-1 on PD-1 effector cells …; test: cell-based or functional assay; remark: listed apart in the source
[6] = molecular target: T1, Neonatal Fc Receptor (FcRn); test: FcRn binding assay, BIACORE (SPR); remark: listed apart in the source
[7] = molecular target: T1, Neonatal Fc Receptor (FcRn); test: FcRn binding assay, BIACORE (SPR); remark: listed apart in the source
[8] = molecular target: T3, PD-1 protein constitutively expressed …; test: MSD potency assay: competitive binding on CHO K1 cells expressing PD-1, inhibition of PD-L1-mFc binding, ECL; percent of reference material; remark: listed apart in the source
Method: as §1

[9] = molecular target: T2, human PD-1 on PD-1 effector cells …; test: cell-based or functional assay; remark: listed apart in the source
[10] = molecular target: T2, human PD-1 on PD-1 effector cells …; test: cell-based or functional assay; remark: listed apart in the source
[11] = molecular target: T1, Neonatal Fc Receptor (FcRn); test: FcRn binding assay, BIACORE (SPR); remark: listed apart in the source
[12] = molecular target: T3, PD-1 protein constitutively expressed …; test: MSD potency assay: competitive binding on CHO K1 cells expressing PD-1, inhibition of PD-L1-mFc binding, ECL; percent of reference material; remark: listed apart in the source
Method: as §1

T3 sequence (Q15116 25-288 limits assumed, change not shown): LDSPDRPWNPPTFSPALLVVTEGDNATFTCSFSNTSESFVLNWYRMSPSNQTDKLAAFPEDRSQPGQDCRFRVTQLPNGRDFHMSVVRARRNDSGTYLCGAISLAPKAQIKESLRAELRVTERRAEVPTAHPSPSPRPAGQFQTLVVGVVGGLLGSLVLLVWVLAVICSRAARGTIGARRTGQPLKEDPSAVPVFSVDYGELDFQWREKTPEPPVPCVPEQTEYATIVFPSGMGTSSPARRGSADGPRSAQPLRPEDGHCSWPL
T2 sequence (Q15116 25-288): as the sequence (Q15116 25-288 limits assumed, change not shown) above

B2: Dostarlimab, AAPH treated, 40° C., 1 day (antibody, human IgG4 S228P, kappa)
heavy: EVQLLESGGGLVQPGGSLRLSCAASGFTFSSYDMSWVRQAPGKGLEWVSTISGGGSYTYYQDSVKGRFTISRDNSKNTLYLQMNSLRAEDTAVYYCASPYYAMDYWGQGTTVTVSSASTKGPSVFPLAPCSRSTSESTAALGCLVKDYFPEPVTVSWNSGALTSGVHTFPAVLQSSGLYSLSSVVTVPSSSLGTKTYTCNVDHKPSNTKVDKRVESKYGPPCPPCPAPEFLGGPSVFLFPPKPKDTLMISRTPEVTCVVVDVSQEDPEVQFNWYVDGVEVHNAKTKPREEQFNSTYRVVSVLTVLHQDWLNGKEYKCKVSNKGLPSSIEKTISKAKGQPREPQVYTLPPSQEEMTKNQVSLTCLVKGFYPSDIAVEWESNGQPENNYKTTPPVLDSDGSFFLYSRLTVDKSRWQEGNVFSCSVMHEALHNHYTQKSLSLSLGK
light: DIQLTQSPSFLSAYVGDRVTITCKASQDVGTAVAWYQQKPGKAPKLLIYWASTLHTGVPSRFSGSGSGTEFTLTISSLQPEDFATYYCQHYSSYPWTFGQGTKLEIKRTVAAPSVFIFPPSDEQLKSGTASVVCLLNNFYPREAKVQWKVDNALQSGNSQESVTEQDSKDSTYSLSSTLTLSKADYEKHKVYACEVTHQGLSSPVTKSFNRGEC
modifications: percent of population: Trp 50 oxidation 38.9; Asn 137 deamidation 1.2; percent of population: Met 103 oxidation 2.5; Met 248 oxidation 47.7; Asn 311 deamidation 6.5; Met 354 oxidation 8.2; Asn 380 deamidation 8.6; Asn 385 deamidation 1.3; Met 424 oxidation 26.2; Asn 430 deamidation 1.1; Lys 443 clipped 96.7
notes: 5 mM AAPH; HMW 4.9%; also called AAPH, 40° C., 1 day; AAPH Day 1
- Relative Potency, MSD Binding [4]: 76%
- Relative Potency, Cell-Based Bioassay [5]: 44%
- Kd [6]: 2340 nM

B5: Dostarlimab, acid degraded, T0 (exposed to pH 4.0, no incubation) (antibody, human IgG4 S228P, kappa)
heavy: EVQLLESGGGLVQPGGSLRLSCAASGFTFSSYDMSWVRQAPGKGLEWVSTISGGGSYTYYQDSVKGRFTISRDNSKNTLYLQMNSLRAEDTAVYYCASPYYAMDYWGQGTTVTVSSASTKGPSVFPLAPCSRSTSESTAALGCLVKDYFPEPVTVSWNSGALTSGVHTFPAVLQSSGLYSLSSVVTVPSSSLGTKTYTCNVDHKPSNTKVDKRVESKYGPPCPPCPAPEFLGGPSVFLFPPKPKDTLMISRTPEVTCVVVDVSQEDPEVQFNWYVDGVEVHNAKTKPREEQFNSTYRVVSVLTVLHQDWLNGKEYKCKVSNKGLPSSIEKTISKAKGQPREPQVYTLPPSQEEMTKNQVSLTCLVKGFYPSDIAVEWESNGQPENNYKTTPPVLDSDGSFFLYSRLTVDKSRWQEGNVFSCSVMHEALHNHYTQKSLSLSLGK
light: DIQLTQSPSFLSAYVGDRVTITCKASQDVGTAVAWYQQKPGKAPKLLIYWASTLHTGVPSRFSGSGSGTEFTLTISSLQPEDFATYYCQHYSSYPWTFGQGTKLEIKRTVAAPSVFIFPPSDEQLKSGTASVVCLLNNFYPREAKVQWKVDNALQSGNSQESVTEQDSKDSTYSLSSTLTLSKADYEKHKVYACEVTHQGLSSPVTKSFNRGEC
modifications: percent of population: Asn 137 deamidation 1.2; percent of population: Met 248 oxidation 3.8; Asn 311 deamidation 7.1; Asn 380 deamidation 10.1; Asn 385 deamidation 1.5; Lys 443 clipped 97.1
notes: Mixture; HMW 13.4%, basic peaks 13.6%
- Relative Potency, MSD Binding [8]: 99%
- Relative Potency, Cell-Based Bioassay [10]: 109%
- Kd [11]: 2060 nM

B6: Dostarlimab, AAPH treated, 40° C., 5 days (antibody, human IgG4 S228P, kappa, V domains shown)
VH: EVQLLESGGGLVQPGGSLRLSCAASGFTFSSYDMSWVRQAPGKGLEWVSTISGGGSYTYYQDSVKGRFTISRDNSKNTLYLQMNSLRAEDTAVYYCASPYYAMDYWGQGTTVTVSS
VL: DIQLTQSPSFLSAYVGDRVTITCKASQDVGTAVAWYQQKPGKAPKLLIYWASTLHTGVPSRFSGSGSGTEFTLTISSLQPEDFATYYCQHYSSYPWTFGQGTKLEIKR
modifications: percent of population: Trp 50 oxidation 86.8; PTM levels of this sample are not tabulated
notes: 5 mM AAPH; HMW 16.4%; also called AAPH, 40° C., 5 days
- Relative Potency, MSD Binding [4]: 47%
- Relative Potency, Cell-Based Bioassay [5]: 5%

B8: Dostarlimab, H2O2 treated, 25° C., 1 week (antibody, human IgG4 S228P, kappa, V domains shown)
VH: EVQLLESGGGLVQPGGSLRLSCAASGFTFSSYDMSWVRQAPGKGLEWVSTISGGGSYTYYQDSVKGRFTISRDNSKNTLYLQMNSLRAEDTAVYYCASPYYAMDYWGQGTTVTVSS
VL: DIQLTQSPSFLSAYVGDRVTITCKASQDVGTAVAWYQQKPGKAPKLLIYWASTLHTGVPSRFSGSGSGTEFTLTISSLQPEDFATYYCQHYSSYPWTFGQGTKLEIKR
modifications: percent of population: Asn 137 deamidation 1.3; percent of population: Met 34 oxidation 14.0; Met 103 oxidation 64.9; Met 248 oxidation 98.6; Asn 311 deamidation 7.0; Met 354 oxidation 99.8; Asn 380 deamidation 10.9; Asn 385 deamidation 1.8; Met 424 oxidation 98.0; Lys 443 clipped 98.0
notes: 0.1% (v:v) H2O2; also called H2O2, 25° C., 1 week
- Relative Potency, MSD Binding [12]: 79%

The next lines start with the values.

- Kd [1]: 2250 nM
- Relative Potency, Cell-Based Bioassay [2]: 94%
- Relative Potency, MSD Binding [3]: 88%
B1: Dostarlimab, thermally degraded, 40° C., 3 weeks (antibody, human IgG4 S228P, kappa)
heavy: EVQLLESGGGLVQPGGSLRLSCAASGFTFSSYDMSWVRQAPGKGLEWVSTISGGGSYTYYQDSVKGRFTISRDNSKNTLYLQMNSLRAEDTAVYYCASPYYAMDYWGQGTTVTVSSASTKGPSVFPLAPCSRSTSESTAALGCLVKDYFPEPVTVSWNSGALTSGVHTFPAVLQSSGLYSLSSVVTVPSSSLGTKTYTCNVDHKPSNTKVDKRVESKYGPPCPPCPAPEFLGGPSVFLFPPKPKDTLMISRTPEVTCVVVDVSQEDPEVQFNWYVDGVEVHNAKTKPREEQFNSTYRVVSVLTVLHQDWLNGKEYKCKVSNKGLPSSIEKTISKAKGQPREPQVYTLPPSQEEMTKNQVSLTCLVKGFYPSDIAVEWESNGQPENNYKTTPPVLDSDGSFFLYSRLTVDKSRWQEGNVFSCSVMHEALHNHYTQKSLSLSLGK
light: DIQLTQSPSFLSAYVGDRVTITCKASQDVGTAVAWYQQKPGKAPKLLIYWASTLHTGVPSRFSGSGSGTEFTLTISSLQPEDFATYYCQHYSSYPWTFGQGTKLEIKRTVAAPSVFIFPPSDEQLKSGTASVVCLLNNFYPREAKVQWKVDNALQSGNSQESVTEQDSKDSTYSLSSTLTLSKADYEKHKVYACEVTHQGLSSPVTKSFNRGEC
modifications: percent of population: Asp 151/167 isomerization 1.1; percent of population: Met 248 oxidation 5.4; Asp 261/266/276 isomerization 2.8; Asn 311 deamidation 6.5; Met 354 oxidation 1.9; Asn 380 deamidation 10.0; Asn 385 deamidation 2.1; Met 424 oxidation 1.7; Asn 430 deamidation 1.2; Lys 443 clipped 97.8
notes: Mixture; HMW 1.4%, acidic peaks 33.8%

- Kd [7]: 2260 nM
B3: Dostarlimab, base degraded, T0 (exposed to pH 9.0, no incubation) (antibody, human IgG4 S228P, kappa)
heavy: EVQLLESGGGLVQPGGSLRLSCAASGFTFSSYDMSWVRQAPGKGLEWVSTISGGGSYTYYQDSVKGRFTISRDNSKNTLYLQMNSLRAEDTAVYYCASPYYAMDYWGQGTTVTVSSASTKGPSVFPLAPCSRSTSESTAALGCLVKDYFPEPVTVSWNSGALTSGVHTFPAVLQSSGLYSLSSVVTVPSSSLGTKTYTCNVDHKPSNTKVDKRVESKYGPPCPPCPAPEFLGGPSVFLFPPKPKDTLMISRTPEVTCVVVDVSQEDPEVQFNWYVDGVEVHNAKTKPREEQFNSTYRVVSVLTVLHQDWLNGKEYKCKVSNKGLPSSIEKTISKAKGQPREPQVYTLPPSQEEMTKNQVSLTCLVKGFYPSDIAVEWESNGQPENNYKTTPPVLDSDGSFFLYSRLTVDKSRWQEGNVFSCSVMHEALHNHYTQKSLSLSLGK
light: DIQLTQSPSFLSAYVGDRVTITCKASQDVGTAVAWYQQKPGKAPKLLIYWASTLHTGVPSRFSGSGSGTEFTLTISSLQPEDFATYYCQHYSSYPWTFGQGTKLEIKRTVAAPSVFIFPPSDEQLKSGTASVVCLLNNFYPREAKVQWKVDNALQSGNSQESVTEQDSKDSTYSLSSTLTLSKADYEKHKVYACEVTHQGLSSPVTKSFNRGEC
modifications: percent of population: Asn 137 deamidation 1.3; percent of population: Met 248 oxidation 2.8; Asn 311 deamidation 6.8; Asn 380 deamidation 10.8; Asn 385 deamidation 1.8; Lys 443 clipped 96.9
notes: Mixture; HMW 8.1%, acidic peaks 27.2%

- Relative Potency, MSD Binding [8]: 88%
- Relative Potency (Potency by cell-based bioassay) [9]: 125%
- Relative Potency, Cell-Based Bioassay [10]: 125%
- Kd [11]: 1980 nM
B4: Dostarlimab, acid degraded, pH 4.0, 25° C., 3 weeks (antibody, human IgG4 S228P, kappa)
heavy: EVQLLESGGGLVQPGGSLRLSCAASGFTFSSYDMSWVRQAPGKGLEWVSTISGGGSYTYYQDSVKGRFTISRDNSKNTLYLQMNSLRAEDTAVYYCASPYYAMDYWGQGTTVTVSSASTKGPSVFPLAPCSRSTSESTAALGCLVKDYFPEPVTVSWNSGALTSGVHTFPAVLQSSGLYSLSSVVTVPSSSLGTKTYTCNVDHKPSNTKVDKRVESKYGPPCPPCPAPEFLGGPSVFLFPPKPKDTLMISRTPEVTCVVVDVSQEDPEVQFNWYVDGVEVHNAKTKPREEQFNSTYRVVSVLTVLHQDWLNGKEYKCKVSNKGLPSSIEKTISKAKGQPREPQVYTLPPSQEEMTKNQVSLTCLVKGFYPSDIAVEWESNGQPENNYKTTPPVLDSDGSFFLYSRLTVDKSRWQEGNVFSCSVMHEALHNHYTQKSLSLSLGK
light: DIQLTQSPSFLSAYVGDRVTITCKASQDVGTAVAWYQQKPGKAPKLLIYWASTLHTGVPSRFSGSGSGTEFTLTISSLQPEDFATYYCQHYSSYPWTFGQGTKLEIKRTVAAPSVFIFPPSDEQLKSGTASVVCLLNNFYPREAKVQWKVDNALQSGNSQESVTEQDSKDSTYSLSSTLTLSKADYEKHKVYACEVTHQGLSSPVTKSFNRGEC
modifications: percent of population: Asn 137 deamidation 1.2; percent of population: Met 248 oxidation 3.1; Asp 261/266/276 isomerization 3.0; Asn 311 deamidation 7.2; Asn 380 deamidation 9.7; Asn 385 deamidation 1.8; Asp 395/397/409 isomerization 2.7; Asn 430 deamidation 1.0; Lys 443 clipped 97.0
notes: Mixture; HMW 15.2%, basic peaks 34.1%; also called Acid Hydrolysis

- Relative Potency (Potency by cell-based bioassay) [9]: 86%
B7: Dostarlimab, sustained agitation, 300 rpm, 25° C., 3 weeks (antibody, human IgG4 S228P, kappa, V domains shown)
VH: EVQLLESGGGLVQPGGSLRLSCAASGFTFSSYDMSWVRQAPGKGLEWVSTISGGGSYTYYQDSVKGRFTISRDNSKNTLYLQMNSLRAEDTAVYYCASPYYAMDYWGQGTTVTVSS
VL: DIQLTQSPSFLSAYVGDRVTITCKASQDVGTAVAWYQQKPGKAPKLLIYWASTLHTGVPSRFSGSGSGTEFTLTISSLQPEDFATYYCQHYSSYPWTFGQGTKLEIKR
modifications: all PTM levels within analytical variability of the control
